Assay: yeast display, Sf9 membrane polyspecificity reagent, FACS + sequencing; frameworks hold sequencing errors
Procedure, shortened: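 Galactose-induced (36–48 hours) yeast carrying a synthetic nanobody display library were exposed to 10% biotinylated, detergent-solubilized Sf9 membrane reagent at 4 °C for 1 hour. FACS followed streptavidin microbead enrichment, using low and high (top ~1%) gates for expression (anti-HA) and reagent binding (streptavidin). Colony PCR, MiSeq 2 × 250 sequencing and CDR-length filtering followed. Labels for polyreactivity reflect the gate of origin.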

Row | Sequence | polyreactivity (PSR sort gate)
1 | QVQLVESGGGLVQAGGSLRLSCAASGIIFTVYAMGWYRQAPGKERELVAAITSSGGRTYYADSVKGRFTISRDNAKNTVYLQMNSLKPEDTAVYYCAASIWLYRYYYWGQGTQVTVSS | high polyreactivity
2 | QVQLVESGGGLVQAGGSLRLSCAASGIIFTVYVMGWYRQAPGKERELVAGITFSTSSTYYADSVKGRFTISRDNAKNTVYLQMNSLKPEDTAVYYCNKDALQTAFDYWGQGTQVTVSS | low polyreactivity
3 | QVQLVESGGGLVQAGGSLRLSCAASGIIFTWYAMGWYRQAPGKERELVAAISGSGDITYYADSVKGRFTSSRDNAKNTVYLQMNSLKPEDTAVYYCAADPWTYWEDYDYWGQGTQVTVSS | low polyreactivity
4 | QVQLVESGGGLVQAGGSLRLSCAASGIIFTYYAMGWYRQAPGKERELVAAISYRGGSTYADSVKGRFTISRDNAKNTVSLQMNSLKPEDTAVYYCAAQRWYVYGQKYHYGYWGQGTQVTVSS | high polyreactivity
5 | QVQLVESGGGLVQAGGSLRLSCAASGIIFVKNAMGWYRPAPGKERELVAAISDNADSTYYADSVKGRFTISRDNAKNTVYLQMNSLKPEDTAVYYCAADWVHRTWLFWYTKYDYWGQGTQVTVSS | low polyreactivity
6 | QVQLVESGGGLVQAGGSLRLSCAASGIIFVKNAMGWYRQAPGKERELVAAISRSGARTYYADSVKGRFTISRDNEKNTVYLQMNSLKPEDTAVYYCNVYTRDRGYDYWGHGTQVTVSS | high polyreactivity
7 | QVQLVESGGGLVQAGGSLRLSCAASGIIFVKNAMGWYRQAPGKERELVASISGSGGRTYYADSEKGRFTISRDNAKNTVYLQMNILKPEDTAVYYCNTLLAPHARKARRHDYWGQGTQVTVSS | low polyreactivity
8 | QVQLVESGGGLVQAGGSLRLSCAASGIIFVKYAMGWYRQAPGKERQLVAAITSGGSTYYADSVKGRFTISRDNAMYTVYLQMNSLKPEDTAVYYCNADSWFLYFFTINGYWGQGTQVTVSS | high polyreactivity
9 | QVQLVESGGGLVQAGGSLRLSCAASGIIFVSYAMGWYRQAPGKERELVADITSGGRTYYADSVKGRFTISRDNAKNTVYLQMNSLKPEDTAVYYCAATYSYKGRWVWVYYWGQGTQVTVSS | high polyreactivity
10 | QVQLVESGGGLVQAGGSLRLSCAASGIIFVSYDMGWYRQAPGKERELVAAINRGGRTYYADSVKGRFTISRDNAKNTDYLQMNSLKPEDTAVYYCAAQFHFRPFSWTYDYWGQGTQVTVSS | high polyreactivity
11 | QVQLVESGGGLVQAGGSLRLSCAASGIIFVTNDMGWYRQAPGKERELVATITWSGGSTYYADSVKGRFTISRDTAKNTVYLQMNSLKPEDTAVYYCAAEKDAHKEDYWGQGSQVTVSS | low polyreactivity
12 | QVQLVESGGGLVQAGGSLRLSCAASGIIFVVYAMGWYRQAPGKERELVAAISFRGGSTYYADSVKGRFTISRDNAKNTVYLQMNSLKPEDTAVYYCAARAFRHDGYDYWGQGTQVTVSS | low polyreactivity
13 | QVQLVESGGGLVQAGGSLRLSCAASGIIFVYYAMGWYRQAPGKERELVAAISRSGGRTYYADSVKGRFTISRDNAKNTVYLQMNSLKPEDTAVYYCAAEVYKRYRYDYWGQGTQVTVSS | high polyreactivity
14 | QVQLVESGGGLVQAGGSLRLSCAASGIIFVYYGKGWYRQAPGKERELVAAISWSGDDTYYADSVKGRFTISRDNAKNTVYLQMNSLKPEDTAVYYCAARPGYVHIDFDYWGQGSQVTVSS | low polyreactivity
15 | QVQLVESGGGLVQAGGSLRLSCAASGIIFVYYVMGWYRQAPGKERELVASIDGSGGSTNYADSVKGRFTISRDNAKYTVYLQMNSLKPEDTAVYYCNADNILYWSTLDYWGQGTQVTVSS | low polyreactivity
16 | QVQLVESGGGLVQAGGSLRLSCAASGIIFWDYAMGWYRQAPGKEREFVAAINTSGGTTTYADSVKGRFTISRDNAKNTVYLQMNSLKPEDTAVYNCAADPWGYYSYAYYYWGQGTQVTVSS | low polyreactivity
17 | QVQLVESGGGLVQAGGSLRLSCAASGIIFWHYAMGRYIQAPGKERELVADISRRGGSTYYADSVKGRFTISRDNAKNTVYLQMNSLKPVDTAVYYCAARYHPGGYDSWGQGTQVTVSS | low polyreactivity
18 | QVQLVESGGGLVQAGGSLRLSCAASGIIFWLYAMGWYRQAPGKERELVAAINWSGSTTYYADSVKGRFTISRDNAKNTVYLQMNSLKPEDTAVYYCAASRVRAYYYTSSLRRYYYWGQGTQVTVSS | high polyreactivity
19 | QVQLVESGGGLVQAGGSLRLSCAASGIIFWLYTMGWYRQAPGKERELVAAITSGGSTYYADSVKGRFTISRDNAKNTVYIQMNSLKPEDTAVYYCAAVPRYRRGKYDYWGQGTQVTVSS | high polyreactivity
20 | QVQLVESGGGLVQAGGSLRLSCAASGIIFWRYAMGWYRQAPGKERELVASISWSGGSTSYADSVKGRFTISRDNAKNTVYLQMNSLKPEDTSVYYCAAVYYYRRRYYYWGQGTQVTVSS | high polyreactivity
21 | QVQLVESGGGLVQAGGSLRLSCAASGIIFWSYTMGWYRQAPGKEREFVASLRKSGGSTYYADSVKGRFTISRDNSKNTVYLQMNSLKPEDTAVYYCAAVYRRYLGGGYDYWGQGTQVTVSS | high polyreactivity
22 | QVQLVESGGGLVQAGGSLRLSCAASGIIFWWYAMGGDRQAPGKERELVAAISGTGGSTYYADSVKGRFTISRDNAKNTVYLQMNTLKPEDTAVSYCPARGTSSSYYDYDYWGQGTQVTVSS | low polyreactivity

Row | Sequence | polyreactivity (PSR sort gate)
23 | QVQLVESGGGLVQAGGSLRLSCAASGIIFWWYDMGWYRQAPGTERELVAAISTGSRTNYADSVKGRFTISRDNAKNTVYLQMNSLKPEDTAVYYCAAEWVGFSGYYGSGYEMDYWGQGTQVTVSS | low polyreactivity
24 | QVQLVESGGGLVQAGGSLRLSCAASGIIFWYNAMGWYRQAPGKERELVAAITYSGGSTYYADSVKGRFTISRDNAKNTVYLQMNSLKPEDTAVYYCAADGYSRYASGGYEYWGQGTQVTVSS | low polyreactivity
25 | QVQLVESGGGLVQAGGSLRLSCAASGIIFWYYAMGWYRQAPGKERELVAAISQSGGSTYYADSVKGRFTISRDNAKNTVYLQMNSMKPEDTAVDYCAAKPFYWSLEYDYRGQGTQVTVSS | high polyreactivity
26 | QVQLVESGGGLVQAGGSLRLSCAASGIIFWYYAMGWYRQAPGKERELVAAISSGGGTNYADSVKGRFTISRDNAKNTVYLQMNSLKPEDTAVYYCNADDNPVWEYDYWGQGTQVTVSS | low polyreactivity
27 | QVQLVESGGGLVQAGGSLRLSCAASGIIFYAYAMGWYRQAPGKERELVAAITFSAVSTYYADSVKGRFTISRDNAKNTVYLQMNSLKPEDTAVYYCAVDREWPGYYYAISKMYYWGQGTQVTVSS | low polyreactivity
28 | QVQLVESGGGLVQAGGSLRLSCAASGIIFYDYAMGWYRQAPGKERELVAAISRSGGSTYYADSVKGRFTISRDNAKNTVYLQMNSLKPEDTAVYYCNADEVVWGYNYWGQGTQVTVSS | low polyreactivity
29 | QVQLVESGGGLVQAGGSLRLSCAASGIIFYDYAMGWYRQAPGKERELVAAISSSGGRTYYADSVKGRFTISRDNAKNTVYLQMNSLNPEDTAFYYCATVSSIYRVRSTSIRYNYWGQGTQVTVSS | high polyreactivity
30 | QVQLVESGGGLVQAGGSLRLSCAASGIIFYENAMGWYRQAPGKERELVADITQSGGSTYYADSVKGRFTISRDNAKNTVYLQMNSLKPEDTAVYYCARDGDLWYYKGYGTLFDYWGQGTQVTVSS | low polyreactivity
31 | QVQLVESGGGLVQAGGSLRLSCAASGIIFYFYAMGWYRQAPGKERELVAAISRGGSTKYADSVKGRFTISRDNAKNTVYLQMNSLKPEDTAVYYCAATRRRPSEYYYWGPGTQVTVSS | high polyreactivity
32 | QVQLVESGGGLVQAGGSLRLSCAASGIIFYFYAMGWYRQAPGKERELVAAITSGGSTNYADSVKGRFTISRDNAKNTVYLQMNSLKPEDTAVYYCAADRDYYFFRYDYWGQGTQVTVSS | low polyreactivity
33 | QVQLVESGGGLVQAGGSLRLSCAASGIIFYGYAMGWYRQAPAKERELVAAITYSGGSTYYADSVKGRFTISRDNAKNTVYLQMNSLKPEDTAVYYCDAYDAYSPYLALYDYWVQGTQVTVSS | low polyreactivity
34 | QVQLVESGGGLVQAGGSLRLSCAASGIIFYGYAMGWYRQAPGKERELVATISTGGRTNYADSVKGRFTISRDNAKNTVYLQMNSLKPEDTAVYYCAARSFWTYRSGGPSDYYYWGQGTQVTVSS | high polyreactivity
35 | QVQLVESGGGLVQAGGSLRLSCAASGIIFYGYVMGWYRQAPGKERELVAAISKSGGSTYYADSVKGRFTISRDIAKNTVYLQMNSLIPEDTAVYYCAAERKSFYRYNYWGQGTQVSVSS | high polyreactivity
36 | QVQLVESGGGLVQAGGSLRLSCAASGIIFYGYVMGWYRQAPGKERELVAAISKSGGSTYYADSVKGRFTISRDNAKNTVYLQMNSLKPEETAVYYCAAERKSFYRYNYWGQGTQVTVSS | high polyreactivity
37 | QVQLVESGGGLVQAGGSLRLSCAASGIIFYKYAMGWYRQAPGKERELVAAINWSGGSTYYADSVKGRFTISRDNAKNTVYLQMNSLKPEDTAVYYCAADRTDFEYYYWGQGTQVTVSS | low polyreactivity
38 | QVQLVESGGGLVQAGGSLRLSCAASGIIFYKYAMGWYRQAPGKERELVAAISYSGTSTYYADSVKGRFTISRDNAKNTVYLQINSLKPEDTAVYYCAAVTYVPRSTNGISLYDYWGQGTQVTVSS | high polyreactivity
39 | QVQLVESGGGLVQAGGSLRLSCAASGIIFYKYAMGWYRQAPGKERELVAAITGRGGSTYYADSVKGRFTISRDNAKNTVYLRMNSLKPEDTAVYFCAASQRSGHPSYDYWGQGTQVTVSS | high polyreactivity
40 | QVQLVESGGGLVQAGGSLRLSCAASGIIFYLYAMGWYRQAPGKERELVAAISRRGVSTYYADSVKGRFTISRDNAKNTVYLQMNSLKPEDTAVYYCAAAGFGYTGEEYWGQGTQVTVSS | high polyreactivity
41 | QVQLVESGGGLVQAGGSLRLSCAASGIIFYLYTMGWYRQAPGKERELVAAISKSGARTYYADSVKGRFTISRDNAKNTVYLQMNSLKPEDTAVYYCAADVSVSGYYYWGQGTQVTVSS | high polyreactivity
42 | QVQLVESGGGLVQAGGSLRLSCAASGIIFYLYVMGWYRQAPGKERELVAVISYSGDDTYYADSVKVRFTISRDNAKNTVYLQMNSLKPEDTAVYYCAADSIGYGFDYWGQGTQVTVSS | low polyreactivity
43 | QVQLVESGGGLVQAGGSLRLSCAASGIIFYPYTMGWYRQAPGKERELVAAINSGGSTYYADSVKGRFTISRDNAKNTVYLQMNSLKPEDTAVYYCAAEANRYSSGYDYWGQGTQVTVTS | low polyreactivity

From the nanobody polyreactivity screen of Harvey et al. (2022)
